According to patent US20240108738A1 (Bicycle, published 2024):
Numbered stars: 1 amine (or outer) side, 2 acyl side, 3 side chain; on linkers, the order of the positions; unused ones are H or OH. Bridge positions count the residues as written; N and C are the ends. Square brackets hold non-standard residues; d marks the D form. Ends that are not written are not given here. TATA = O=C(CC[*:1])N1CN(C(=O)CC[*:2])CN(C(=O)CC[*:3])C1; Trp(1-Me) = Cn1cc(C[C@H](N)C(=O)O)c2ccccc21; Ala(4-thiazolyl) = N[C@@H](Cc1cscn1)C(=O)O; 1Nal = N[C@@H](Cc1cccc2ccccc12)C(=O)O; cisHyp = O=C(O)[C@@H]1C[C@H](O)CN1; Hyp = O=C(O)[C@@H]1C[C@@H](O)CN1; tBuAla = CC(C)(C)C[C@H](N)C(=O)O; Cba = N[C@@H](CC1CCC1)C(=O)O; Chg = N[C@H](C(=O)O)C1CCCCC1; Tle = CC(C)(C)[C@H](N)C(=O)O; NMeA = CN[C@@H](C)C(=O)O; Nle = CCCC[C@H](N)C(=O)O; Sar = CNCC(=O)O

B1: BCY18315 (peptide)
peptide: ACNLQAPC[Cba]LTGKVCA-NH2
modifications: linker 2-8-15 via TATA; N-terminus assumed
SMILES: CC(C)C[C@@H]1NC(=O)[C@H](CC(N)=O)NC(=O)[C@@H](NC(=O)[C@H](C)N)CSCCC(=O)N2CN3CN(C2)C(=O)CCSC[C@H](NC(=O)[C@@H]2CCCN2C(=O)[C@H](C)NC(=O)[C@H](CCC(N)=O)NC1=O)C(=O)N[C@@H](CC1CCC1)C(=O)N[C@@H](CC(C)C)C(=O)N[C@@H]([C@@H](C)O)C(=O)NCC(=O)N[C@@H](CCCCN)C(=O)N[C@@H](C(C)C)C(=O)N[C@H](C(=O)N[C@@H](C)C(N)=O)CSCCC3=O
notes: scaffold TATA
B2: BCY18287 (peptide)
peptide: ACDLTTHNCQ[1Nal]GICA-NH2
modifications: linker 2-9-14 via TATA; N-terminus assumed
SMILES: CC[C@H](C)[C@@H]1NC(=O)CNC(=O)[C@H](Cc2cccc3ccccc23)NC(=O)[C@H](CCC(N)=O)NC(=O)[C@@H]2CSCCC(=O)N3CN(CN(C3)C(=O)CCSC[C@@H](C(=O)N[C@@H](C)C(N)=O)NC1=O)C(=O)CCSC[C@H](NC(=O)[C@H](C)N)C(=O)N[C@@H](CC(=O)O)C(=O)N[C@@H](CC(C)C)C(=O)N[C@@H]([C@@H](C)O)C(=O)N[C@@H]([C@@H](C)O)C(=O)N[C@@H](Cc1c[nH]cn1)C(=O)N[C@@H](CC(N)=O)C(=O)N2
notes: scaffold TATA
B3: BCY18309 (peptide)
peptide: ACNLQA[Sar]CMLTGKVCA-NH2
modifications: linker 2-8-15 via TATA; N-terminus assumed
SMILES: CSCC[C@@H]1NC(=O)[C@@H]2CSCCC(=O)N3CN(CN(C3)C(=O)CCSC[C@@H](C(=O)N[C@@H](C)C(N)=O)NC(=O)[C@H](C(C)C)NC(=O)[C@H](CCCCN)NC(=O)CNC(=O)[C@H]([C@@H](C)O)NC(=O)[C@H](CC(C)C)NC1=O)C(=O)CCSC[C@H](NC(=O)[C@H](C)N)C(=O)N[C@@H](CC(N)=O)C(=O)N[C@@H](CC(C)C)C(=O)N[C@@H](CCC(N)=O)C(=O)N[C@@H](C)C(=O)N(C)CC(=O)N2
notes: scaffold TATA
B4: BCY18282 (peptide)
peptide: ACDLTT[Ala(4-thiazolyl)]NCQWGICA-NH2
modifications: linker 2-9-14 via TATA; N-terminus assumed
SMILES: CC[C@H](C)[C@@H]1NC(=O)CNC(=O)[C@H](Cc2c[nH]c3ccccc23)NC(=O)[C@H](CCC(N)=O)NC(=O)[C@@H]2CSCCC(=O)N3CN(CN(C3)C(=O)CCSC[C@@H](C(=O)N[C@@H](C)C(N)=O)NC1=O)C(=O)CCSC[C@H](NC(=O)[C@H](C)N)C(=O)N[C@@H](CC(=O)O)C(=O)N[C@@H](CC(C)C)C(=O)N[C@@H]([C@@H](C)O)C(=O)N[C@@H]([C@@H](C)O)C(=O)N[C@@H](Cc1cscn1)C(=O)N[C@@H](CC(N)=O)C(=O)N2
notes: scaffold TATA
B5: BCY18288 (peptide)
peptide: ACDLTTHNCQ[Trp(1-Me)]GICA-NH2
modifications: linker 2-9-14 via TATA; N-terminus assumed
SMILES: CC[C@H](C)[C@@H]1NC(=O)CNC(=O)[C@H](Cc2cn(C)c3ccccc23)NC(=O)[C@H](CCC(N)=O)NC(=O)[C@@H]2CSCCC(=O)N3CN(CN(C3)C(=O)CCSC[C@@H](C(=O)N[C@@H](C)C(N)=O)NC1=O)C(=O)CCSC[C@H](NC(=O)[C@H](C)N)C(=O)N[C@@H](CC(=O)O)C(=O)N[C@@H](CC(C)C)C(=O)N[C@@H]([C@@H](C)O)C(=O)N[C@@H]([C@@H](C)O)C(=O)N[C@@H](Cc1c[nH]cn1)C(=O)N[C@@H](CC(N)=O)C(=O)N2
notes: scaffold TATA

Each binder was assayed against T1, Human NKp46 Fc tag (Acro Biosystems, NC1-H5257) (human, UniProt O76036 22-255) (assay: SPR Method 1 and/or 2).
T1 construct: bought; also called Fc-tagged human NKp46
Procedure: The SPR analysis was run at 25° C. and a flow rate of 50 μl/min with 60 seconds association and 200-400 seconds dissociation time. Data were corrected for DMSO excluded volume effects. All data were double-referenced for blank injections and reference surface using standard processing procedures and data processing and kinetic fitting were performed using Scrubber software, version 2.0c (BioLogic Software). Data were fitted using simple 1:1 binding model allowing for mass transport effects where appropriate.
For analysis of peptide binding, a Biacore 8k+ instrument was used with a CM5 chip (Cytiva). All experiments were carried out at 25° C. Anti-human IgG (Fc) antibody (Cytiva) was immobilized on all flow cells by standard amine coupling chemistry. The running buffer was HBS-N(Cytiva, 10 mM HEPES, 0.15 M NaCl, pH 7.4) and the flow rate was 10 μL/min. The carboxymethyl dextran surface was activated with a 1:1 ratio of 0.4 M 1-ethyl-3-(3-dimethylaminopropyl) carbodiimide hydrochloride (EDC)/0.1 M N-hydroxy succinimide (NHS) (Cytiva) for 420s. […] Residual activated groups were blocked with a 420 s injection of 1 M ethanolamine (pH 8.5). The final surface density was 3000-5000 RU. Fc-tagged human NKp46 was diluted to 0.1 μM in HBS-N and was captured on flow cell 2 only of the sensor chip at a flow rate of 10 μL/min to 500-1000 RU. The buffer was then changed to PBS-P+(Cytiva) supplemented with 2% DMSO. […] The flow rate was 50 μL/min with 60 s association and 400 s dissociation. Data were corrected for DMSO volume exclusion effects. All data were double-referenced against blank injections and reference surface response using standard processing procedures. Data processing and kinetic fitting was performed using Biacore Insight Evaluation Software with Extended Screening and Characterization Extension (Cytiva). Data were fitted using steady state affinity 1:1 binding model to determine KD. Data were fitted using kinetic 1:1 binding model to determine kinetic constants where appropriate.

T1 sequence (O76036 22-255 limits assumed): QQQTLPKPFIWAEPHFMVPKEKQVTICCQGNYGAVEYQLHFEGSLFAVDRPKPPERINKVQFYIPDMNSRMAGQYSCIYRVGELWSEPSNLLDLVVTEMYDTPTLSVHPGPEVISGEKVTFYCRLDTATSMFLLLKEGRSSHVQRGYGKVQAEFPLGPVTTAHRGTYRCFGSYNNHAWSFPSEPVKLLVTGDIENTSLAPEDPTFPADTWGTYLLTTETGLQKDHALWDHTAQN

Row | Kd [nM] | Binder
1 | 878 | B1
2 | 1230 | ACDLTTHNC[Cba]WGICA-NH2 (linker 2-9-14 via TATA, scaffold TATA) [BCY18286]
3 | 2850 | ACDLTTHNCQWG[Chg]CA-NH2 (linker 2-9-14 via TATA, scaffold TATA) [BCY18291]
4 | 795 | ACNLQA[Hyp]CMLTGKVCA-NH2 (linker 2-8-15 via TATA, scaffold TATA) [BCY18311]
5 | 1810 | ACNLQA[NMeA]CMLTGKVCA-NH2 (linker 2-8-15 via TATA, scaffold TATA) [BCY18312]
6 | 3150 | ACNLQAPC[Nle]LTGKVCA-NH2 (linker 2-8-15 via TATA, scaffold TATA) [BCY18314]
7 | 3260 | Ac-ACNLQAPCMLTGKVCA-NH2 (linker 2-8-15 via TATA (inferred), scaffold TATA) [BCY18294]
8 | 1120 | ACNLQAPCMLTGKVCA-NH2 (linker 2-8-15 via TATA; also: scaffold TATA, TATB or TBMT, scaffold TATA) [BCY15099]
9 | 2750 | ACNLQAPCMLTAKVCA-NH2 (linker 2-8-15 via TATA; also: scaffold TATA, TATB or TBMT, scaffold TATA) [BCY18303]
10 | 466 | ACNLQAPCMLT[dA]KVCA-NH2 (linker 2-8-15 via TATA (inferred), scaffold TATA) [BCY18322]
11 | 2080 | ACNLQAPCMFTGKVCA-NH2 (linker 2-8-15 via TATA; also: scaffold TATA, TATB or TBMT, scaffold TATA) [BCY18317]
12 | 907 | ACNLQAPCMLTGKACA-NH2 (linker 2-8-15 via TATA; also: scaffold TATA, TATB or TBMT, scaffold TATA) [BCY18305]
13 | 2340 | ACNLQAPCMLTGRVCA-NH2 (linker 2-8-15 via TATA; also: scaffold TATA, TATB or TBMT, scaffold TATA) [BCY18323]
14 | 2750 | ACNLQAPCLLTGKVCA-NH2 (linker 2-8-15 via TATA; also: scaffold TATA, TATB or TBMT, scaffold TATA) [BCY18313]
15 | 802 | ACNLQA[cisHyp]CMLTGKVCA-NH2 (linker 2-8-15 via TATA, scaffold TATA) [BCY18310]
16 | 991 | ACNLQAPCM[Cba]TGKVCA-NH2 (linker 2-8-15 via TATA, scaffold TATA) [BCY18319]
17 | 637 | B2
18 | 2570 | B3
19 | 661 | B4
20 | 4890 | ACDLTTHNCQWG[tBuAla]CA-NH2 (linker 2-9-14 via TATA, scaffold TATA) [BCY18290]
21 | 3380 | Ac-CNLQAPCMLTGKVC-NH2 (linker 1-7-14 via TATA (inferred), scaffold TATA) [BCY18293]
22 | 2110 | ACN[tBuAla]QAPCMLTGKVCA-NH2 (linker 2-8-15 via TATA, scaffold TATA) [BCY18307]
23 | 354 | B5
24 | 572 | ACDLTTHNCQWG[Tle]CA-NH2 (linker 2-9-14 via TATA, scaffold TATA) [BCY18289]
